These are literature values, as cited in PMC2921030.

A value given as a limit tells only on which side of the number the result lay.

The data set deals with 4E-BP1 peptide (Homo sapiens) (UniProt Q13541).
UniProt Q13541, sequence (Q13541 2-118): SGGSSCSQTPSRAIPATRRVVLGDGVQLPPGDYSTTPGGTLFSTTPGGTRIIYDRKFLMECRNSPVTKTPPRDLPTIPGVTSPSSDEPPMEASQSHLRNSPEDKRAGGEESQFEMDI

One may read the Kd as the free concentration of one partner at which half of the binding sites on the other are occupied at equilibrium, for simple one-to-one binding. On to eIF4E (from UniProt P06730), for which the Kd is less than 50 nM.
